Test results as given in paper PMC10648788, “Ahf-Caltide, a Novel Polypeptide Derived from Calpastatin, Protects against Oxidative Stress Injury by Stabilizing the Expression of CaV1.2 Calcium Channel” (International Journal of Molecular Sciences, 2023).

T1: GST-IQ, IQ motif of the CaV1.2 channel alpha1 subunit (UniProt O35505 1648-1668)
T1 construct: CaV1.2 calcium channel alpha1 subunit, IQ motif, a.a; 1648-1668, GenBank AB016287; also called IQ domain; source: E. coli BL21, purified (Glutathione Sepharose 4B)
T1 chain (looked up): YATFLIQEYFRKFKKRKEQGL

B1: Calpastatin (CAST) domain L (domain or fragment, UniProt P20810 3-148, looked up)
chain: PTETKAIPVSQQMEGPHLPNKKKHKKQAVKTEPEKKSQSTKLSVVHEKKSQEGKPKEHTEPKSLPKQASDTGSNDAHNKKAVSRSAEQQPSEKSTEPKTKPQDMISAGGESVAGITAISGKPGDKKKEKKSLTPAVPVESKPDKPS
notes: calpastatin (CAST) domain L (CSL), a.a; In the H2O2 experiments CSL was incubated with H2O2 present; The chemical change is not defined; also called CSL; source: E. coli BL21, purified (Glutathione Sepharose 4B), GST removed using PreScission protease
B2: GST-NT, N terminus of the CaV1.2 channel alpha1 subunit (domain or fragment, UniProt O35505 6-140, looked up)
chain: QPTTPAYRPLPSHLSADTEVRGRGTLVHEAQLNCFYISPGGSNYGSPRPAHANINANAAAGLAPEHIPTPGAALSWQAAIDAGRQAKLMGSAGNTTISTVSSTQRKRQQYGKPKKQSGTTATRPPRALLCLTLKN
notes: CaV1.2 calcium channel alpha1 subunit, N terminus (NT), a.a; 6-140, GenBank AB016287; source: E. coli BL21, purified (Glutathione Sepharose 4B)

What was measured:
Conditions in all cases: both partners purified
[1] = biological target: T2, GST-PreIQ, PreIQ motif of the CaV1.2 channel alpha1 subunit (UniProt O35505 1599-1639); experiment: pull-down; GST fusion (15 ug) with 10 uM CSL in 400 uL Tris buffer, 4 C, 4 h; [Ca2+] 10 uM, H2O2 10^-1 M; Coomassie-stained gel quantified
T2 construct: CaV1.2 calcium channel alpha1 subunit, PreIQ motif, a.a; 1599-1639, GenBank AB016287; source: E. coli BL21, purified (Glutathione Sepharose 4B)
T2 sequence (O35505 1599-1639): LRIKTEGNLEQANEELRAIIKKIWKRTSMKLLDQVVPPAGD

[2] = biological target: T1, GST-IQ, IQ motif of the CaV1.2 channel …; experiment: as above
[3] = biological target: B2; experiment: as above
[4] = biological target: T3, GST-CT1, proximal portion of the C terminus of the CaV1.2 channel alpha1 subunit (UniProt O35505 1509-1789); experiment: as above
T3 construct: CaV1.2 calcium channel alpha1 subunit, CT1 (proximal portion of CT), a.a; 1509-1789, GenBank AB016287; source: E. coli BL21, purified (Glutathione Sepharose 4B)
T3 sequence (O35505 1509-1789): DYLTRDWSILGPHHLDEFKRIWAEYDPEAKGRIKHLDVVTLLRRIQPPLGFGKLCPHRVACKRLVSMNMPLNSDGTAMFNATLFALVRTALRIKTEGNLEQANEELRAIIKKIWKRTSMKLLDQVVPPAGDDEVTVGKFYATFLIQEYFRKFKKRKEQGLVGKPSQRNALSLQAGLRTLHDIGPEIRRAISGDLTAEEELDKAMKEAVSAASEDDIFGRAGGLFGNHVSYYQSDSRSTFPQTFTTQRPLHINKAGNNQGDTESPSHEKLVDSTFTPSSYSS

[5] = biological target: T2, GST-PreIQ, PreIQ motif of the CaV1.2 …; experiment: pull-down; GST fusion (15 ug) with 10 uM CSL in 400 uL Tris buffer, 4 C, 4 h; [Ca2+] 10 uM, H2O2 0 M; Coomassie-stained gel quantified
[6] = biological target: T1, GST-IQ, IQ motif of the CaV1.2 channel …; experiment: as above
[7] = biological target: B2; experiment: as above
[8] = biological target: T3, GST-CT1, proximal portion of the C …; experiment: as above
[9] = biological target: T2, GST-PreIQ, PreIQ motif of the CaV1.2 …; experiment: pull-down; GST fusion (15 ug) with 10 uM CSL in 400 uL Tris buffer, 4 C, 4 h; [Ca2+] 10 uM, H2O2 10^-2 M; Coomassie-stained gel quantified
[10] = biological target: T1, GST-IQ, IQ motif of the CaV1.2 channel …; experiment: as above
[11] = biological target: B2; experiment: as above
[12] = biological target: T3, GST-CT1, proximal portion of the C …; experiment: as above
[13] = biological target: B1; experiment: pull-down; GST-NT (15 ug) incubated with CSL 0-30 uM for 4 h in 400 uL Tris buffer, [Ca2+] 10 uM; Coomassie-stained gel quantified; one-site fit, apparent Kd
[14] = biological target: B1; experiment: pull-down; GST-NT (15 ug) incubated with CSL 0-30 uM for 4 h in 400 uL Tris buffer, [Ca2+] 1 mM; Coomassie-stained gel quantified; one-site fit, apparent Kd
[15] = biological target: B1; experiment: pull-down; GST-NT (15 ug) incubated with CSL 0-30 uM for 4 h in 400 uL Tris buffer, [Ca2+] 25 nM; Coomassie-stained gel quantified; one-site fit, apparent Kd

B1 was tested, and the “binding density of CSL” value [1] was 0.16, the “binding density of CSL” value [2] was 0.26 and the “binding density of CSL” value [3] was 0.46. The “binding density of CSL” value [4] was 0.68, the “binding density of CSL” value [5] was 0.16 and the “binding density of CSL” value [6] was 0.15. The “binding density of CSL” value [7] was 0.46, the “binding density of CSL” value [8] was 0.52 and the “binding density of CSL” value [9] was 0.16. For the same binder, the “binding density of CSL” value [10] was 0.34, the “binding density of CSL” value [11] was 0.46 and the “binding density of CSL” value [12] was 1.12.

With B2 the Kd [13] was 1480 nM, the Kd [14] was 1320 nM and the Kd [15] was 1110 nM.
